# Patent publication US20240317884A1, “METHOD FOR ALLOWING IMMUNE CELLS INFILTRATION IN TUMORS” (Alethia Biotherapeutics Inc., priority 2021, published 2024)
# Key:
# tumor biopsies [1] = assay: Human tumor biopsies of patients treated with AB-16B5 as single agent (H&E); assay type: in vivo; conditions: after the second cycle
# Protocol: In parallel human tumor biopsies of patients treated with AB-16B5 as single agent were analyzed (FIGS. 2B-2E). Needle biopsies obtained from a patient with metastatic thyroid cancer and form a patient with inoperable metastatic gastric cancer were sectioned and stained with hematoxylin and eosin. An on-treatment biopsy from a patient with thyroid cancer metastasic to the lungs was obtained after the second cycle treatment with AB-16B5. […] Hemosiderin-laden macrophages were observed inside necrotic areas some reflecting red blood cell extravasation associated with necrosis (not shown). […] On display one finds.
# tumor biopsies [2] = assay: Phase I: necrosis in tumor biopsies; assay type: in vivo, human; conditions: for Necrosis Pre-Treatment: baseline
# Protocol: (§1) Tumor biopsies were collected during the standard dose escalation to investigate the presence of AB-16B5 within the tumor. A total of 4 pre-treatment and 5 post-treatment tumor biopsies were suitable for analysis. These post-treatment tumor biopsies were collected following dosing on Cycle 2 Day 15 (between Cycle 2 Day 15 and Cycle 2 Day 18). The biopsy sites were liver (n=2), lymph node (n=2), bladder, skin and vulva.
# Immunohistochemistry studies were conducted on paired tumor biopsies to determine if the treatment with AB-16B5 was associated with a reacquisition of an epithelial phenotype.
# [3] = Non-clinical toxicity, weekly administration, monkeys; assay type: in vivo, Rhesus monkeys
# Text: Consequently, they were not considered to be toxicologically significant.
# [4] = Phase I: detection of AB-16B5 in tumor biopsies; assay type: in vivo, human; conditions: for Detection of AB-16B5 in Tumor Biopsies, Post-Treatment Biopsy: 12.0 mg/kg, after dosing on Cycle 2 Day 15
# Text: as §1
# [5] = Phase I: plasma pharmacokinetics (non-compartmental analysis); assay type: in vivo, human; conditions: plasma, first dose of cycle; for AUC0-t / Cmax / Thalf: mean; for Tmax: median
# Text: Plasma PK parameters for AB-16B5 were derived from the concentration-time profiles following the first dose of Cycle 1 and the first dose of Cycle 2 using a non-compartmental analysis (NCA) with Phoenix WinNonlin.
# [6] = Subject 012, Breast, biopsy site Skin
# [7] = Subject 013, Prostate, biopsy site Bladder
substance,measurement,setting,value
"AB-16B5: humanized IgG2 monoclonal antibody targeting sCLU; light chain SEQ ID NO:11, heavy chain SEQ ID NO:12","immune infiltrate, on-treatment biopsy","tumor biopsies [1]; patient with inoperable metastatic gastric cancer, small fragments",infiltrated by a mix neutrophilic and mononucleated immune cells infiltrate
same,"immune infiltrate, on-treatment biopsy","tumor biopsies [1]; patient with thyroid cancer metastatic to the lungs, edge of fragment",lymphoplasmacytic infiltrate was observed
same,"necrosis of tumor fragments, on-treatment biopsy","tumor biopsies [1]; patient with thyroid cancer metastatic to the lungs, single agent",essentially all tumor fragments were necrotic
same,Necrosis Post-Treatment,"tumor biopsies [2]; Subject 006, Breast, biopsy site Skin, 9.0 mg/kg",10%
same,Necrosis Pre-Treatment,"tumor biopsies [2]; Subject 006, Breast, biopsy site Skin",0%
same,Necrosis Post-Treatment,"tumor biopsies [2]; Subject 007, Gastric, biopsy site Gastric, 9.0 mg/kg",0%
same,Necrosis Pre-Treatment,"tumor biopsies [2]; Subject 007, Gastric, biopsy site Gastric",0%
same,Necrosis Post-Treatment,"tumor biopsies [2]; Subject 012, Breast, biopsy site Skin, 12.0 mg/kg",5%
same,Necrosis Pre-Treatment,tumor biopsies [2]; [6],0%
same,Necrosis Post-Treatment,"tumor biopsies [2]; Subject 013, Prostate, biopsy site Bladder, 12.0 mg/kg",10%
same,Necrosis Pre-Treatment,tumor biopsies [2]; [7],0%
same,No Observable Adverse Effect Level (NOAEL),"[3]; Rhesus monkeys, weekly administration",100 mg/kg/dose
same,signs of overt toxicity,"[3]; rhesus monkey, in vivo",did not result in any signs of overt toxicity
same,hepatocellular vacuolation in the liver,"[3]; rhesus monkey, in vivo, 100 mg/kg",2 animals
same,presence of AB-16B5 in all pre-treatment tumor biopsies,"[4]; 4 pre-treatment biopsies, baseline",negative
same,presence of AB-16B5 in all post-treatment tumor biopsies analyzed,[4]; 5 post-treatment biopsies,confirmed
same,"Detection of AB-16B5 in Tumor Biopsies, Post-Treatment Biopsy","[4]; Subject 009, Lung, biopsy site Liver",Positive
same,"Detection of AB-16B5 in Tumor Biopsies, Post-Treatment Biopsy","[4]; Subject 010, Colorectal, biopsy site Liver",Positive
same,"Detection of AB-16B5 in Tumor Biopsies, Pre-Treatment Biopsy","[4]; Subject 011, Colorectal, biopsy site Lymph node, baseline",Negative
same,"Detection of AB-16B5 in Tumor Biopsies, Post-Treatment Biopsy",[4]; [6],Positive
same,"Detection of AB-16B5 in Tumor Biopsies, Pre-Treatment Biopsy","[4]; Subject 012, Breast, biopsy site Skin, baseline",Negative
same,"Detection of AB-16B5 in Tumor Biopsies, Post-Treatment Biopsy",[4]; [7],Positive
same,"Detection of AB-16B5 in Tumor Biopsies, Pre-Treatment Biopsy","[4]; Subject 014, Vulvar melanoma, biopsy site Vulva, baseline",Negative
same,"Detection of AB-16B5 in Tumor Biopsies, Post-Treatment Biopsy","[4]; Subject 015, Ovarian, biopsy site Lymph node",Positive
same,"Detection of AB-16B5 in Tumor Biopsies, Pre-Treatment Biopsy","[4]; Subject 015, Ovarian, biopsy site Lymph node, baseline",Negative
same,AUC0-t,"[5]; Cycle 1, 1.5 mg/kg (N = 1)","230,321 ng*h/mL"
same,Cmax,"[5]; Cycle 1, 1.5 mg/kg (N = 1)","17,958 ng/mL"
same,Thalf,"[5]; Cycle 1, 1.5 mg/kg (N = 1)",9.35 h
same,Tmax,"[5]; Cycle 1, 1.5 mg/kg (N = 1)",1.17 h
same,AUC0-t,"[5]; Cycle 1, 3.0 mg/kg (N = 1)","645,602 ng*h/mL"
same,Cmax,"[5]; Cycle 1, 3.0 mg/kg (N = 1)","50,736 ng/mL"
same,Thalf,"[5]; Cycle 1, 3.0 mg/kg (N = 1)",7.39 h
same,Tmax,"[5]; Cycle 1, 3.0 mg/kg (N = 1)",1.08 h
same,AUC0-t,"[5]; Cycle 1, 6.0 mg/kg (N = 3)","1,357,773 ng*h/mL"
same,Cmax,"[5]; Cycle 1, 6.0 mg/kg (N = 3)","117,663 ng/mL"
same,Thalf,"[5]; Cycle 1, 6.0 mg/kg (N = 3)",6.99 h
same,Tmax,"[5]; Cycle 1, 6.0 mg/kg (N = 3)",1.00 h
same,AUC0-t,"[5]; Cycle 1, 9.0 mg/kg (N = 3)","2,083,091 ng*h/mL"
same,Cmax,"[5]; Cycle 1, 9.0 mg/kg (N = 3)","162,103 ng/mL"
same,Thalf,"[5]; Cycle 1, 9.0 mg/kg (N = 3)",10.78 h
same,Tmax,"[5]; Cycle 1, 9.0 mg/kg (N = 3)",2.00 h
same,AUC0-t,"[5]; Cycle 1, 12.0 mg/kg (N = 7)","4,045,786 ng*h/mL"
same,Cmax,"[5]; Cycle 1, 12.0 mg/kg (N = 7)","256,977 ng/mL"
same,Thalf,"[5]; Cycle 1, 12.0 mg/kg (N = 7)",11.99 h
same,Tmax,"[5]; Cycle 1, 12.0 mg/kg (N = 7)",1.12 h
same,AUC0-t,"[5]; Cycle 2, 1.5 mg/kg (N = 1)","188,584 ng*h/mL"
same,Cmax,"[5]; Cycle 2, 1.5 mg/kg (N = 1)","15,662 ng/mL"
same,Thalf,"[5]; Cycle 2, 1.5 mg/kg (N = 1)",7.97 h
same,Tmax,"[5]; Cycle 2, 1.5 mg/kg (N = 1)",1.00 h
same,AUC0-t,"[5]; Cycle 2, 3.0 mg/kg (N = 1)","688,934 ng*h/mL"
same,Cmax,"[5]; Cycle 2, 3.0 mg/kg (N = 1)","61,466 ng/mL"
same,Thalf,"[5]; Cycle 2, 3.0 mg/kg (N = 1)",6.82 h
same,Tmax,"[5]; Cycle 2, 3.0 mg/kg (N = 1)",1.05 h
